Measurements as given in US20260216242A1, “ALPP-SPECIFIC VARIANT ANTIGEN BINDING MOLECULES” (ALMAC DISCOVERY LIMITED, priority 2022, published 2026).

T1: ALPL expressed on the surface of CHO cells (CHO-ALPL) (Homo sapiens, UniProt P05186)
T1 construct: expressed in transfected cells
T1 sequence (P05186 18-501 limits assumed): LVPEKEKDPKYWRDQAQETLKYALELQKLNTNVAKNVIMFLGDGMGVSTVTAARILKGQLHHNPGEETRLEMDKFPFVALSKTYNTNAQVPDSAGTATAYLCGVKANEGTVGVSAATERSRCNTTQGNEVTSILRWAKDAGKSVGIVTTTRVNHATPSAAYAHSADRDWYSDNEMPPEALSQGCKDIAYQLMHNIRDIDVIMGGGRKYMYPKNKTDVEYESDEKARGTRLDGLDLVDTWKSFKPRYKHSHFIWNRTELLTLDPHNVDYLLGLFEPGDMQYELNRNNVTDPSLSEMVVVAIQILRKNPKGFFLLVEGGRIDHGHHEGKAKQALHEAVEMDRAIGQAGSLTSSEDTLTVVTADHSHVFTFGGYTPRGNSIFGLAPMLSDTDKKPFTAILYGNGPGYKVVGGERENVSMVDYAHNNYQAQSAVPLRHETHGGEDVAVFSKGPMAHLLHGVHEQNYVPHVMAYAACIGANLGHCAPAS


target: T1, ALPL expressed on the surface of CHO cells (CHO-ALPL); experiment: Cell-surface binding by flow cytometry, CHO-ALPL; conditions: VHH His proteins
Protocol: C-terminal His tagged VHH proteins were assessed for ALPP, ALPPL2, ALPI and ALPL cell-surface binding by flow cytometry. Binders encompassing different epitope bins were screened on CHO cells stably expressing ALPP, ALPPL2, ALPI or ALPL. High levels of cell-surface proteins expression were confirmed for each of the cell-lines by flow cytometry.
Cell surface binding of test agents to hALPP isoforms was characterized in four CHO-ALPP isoform stably transfected cell lines (CHO-ALPP, CHO-ALPPL2, CHO-ALPI and CHO-ALPL) and the resulting KDapp values determined. Adherent cells were detached from tissue culture flasks by incubating with 0.1% EDTA/PBS solution at 37° C. for ~10 minutes or until cells detached easily. Cells were re-suspended in ice-cold PBS/2% FCS in 15 ml tubes and centrifuged at 1700 rpm for 5 mins at 4° C. Supernatant was removed and the cell pellet re-suspended in PBS/2% FCS. A cell count was performed using a Chemometec Nucleocounter NC-202 and 2.5×10^5 cells were aliquoted per test sample into a 96 well plate. Cells were incubated with 100 μl of test agents at a range of concentrations, plus controls for 1 hr on ice. The sample plate was centrifuged at 1700 rpm for 5 mins at 4° C. The supernatant was removed, and a wash performed by re-suspending the cell pellets in 0.25 mL of ice-cold PBS/2% FCS using a multichannel pipette. Samples were again centrifuged at 1700 rpm for 5 min at 4° C. Supernatant was removed and two further washes performed as described. After the final wash and centrifugation step, excess liquid was removed by blotting the plate on tissue paper. Binding of VHH (His6 tagged) agents was determined by adding 100 μl of anti-x6His tag Ab (Abcam) per cell pellet sample as appropriate and incubating on ice for 30 mins. Wash steps were performed as described previously. Fitc-anti-mouse antibody (ThermoFisher) was used to detect binding of the VHH (His6 tagged) agents by incubating with the appropriate samples for 30 min on ice in the dark. Wash steps were performed as described previously. All cell pellets were finally re-suspended in […] of ice-cold PBS/2% FCS and left on ice in the dark prior to analysis on a Merck-Millipore Guava EasyCyte HT or Thermo Fisher Attune N×T flow cytometer.
VHH-hFc proteins were assessed for human ALPP, ALPPL2, ALPI and ALPL cell-surface binding by flow cytometry. Binders were screened on CHO cells stably expressing human ALPP, ALPPL2, ALPI or ALPL.
Cell surface binding of test agents to hALPP isoforms was characterized in four CHO-ALPP isoform transfectant cell lines (CHO-ALPP, CHO-ALPPL2, CHO-ALPI and CHO-ALPL) and the resulting KDapp values determined. Adherent cells were detached from tissue culture flasks by incubating with 0.1% EDTA/PBS solution at 37° C. for ~10 minutes or until cells detached easily. Cells were re-suspended in ice-cold PBS/2% FCS in 15 ml tubes and centrifuged at 1700 rpm for 5 mins at 4° C. Supernatant was removed and the cell pellet re-suspended in PBS/2% FCS. A cell count was performed using a Chemometec Nucleocounter NC-202 and 2.5×10^5 cells were aliquoted per test sample into a 96 well plate. Cells were incubated with 100 μl of test agents at a range of concentrations, plus controls for 1 hr on ice. The sample plate was centrifuged at 1700 rpm for 5 mins at 4° C. The supernatant was removed, and a wash performed by re-suspending the cell pellets in 0.25 mL of ice-cold PBS/2% FCS using a multichannel pipette. Samples were again centrifuged at 1700 rpm for 5 min at 4° C. Supernatant was removed and two further washes performed as described. After the final wash and centrifugation step, excess liquid was removed by blotting the plate on tissue paper. Binding of VHH-hFc agents was determined by adding 100 μl of Fitc-anti-human Ab (ThermoFisher) and incubating for 30 mins on ice in the dark. Wash steps were performed as described previously. […]

Molecule | KDapp CHO-ALPL
D10: ALPP targeting VHH domain, SEQ ID NO: 28 (protein) VHH: QVQLVESGGGLVQPGGSLRLSCAASGSIFSVNTMGWYRQAPGKQRDLVAVATSGGTIHYADSVKGRFTISRDNAKNTVYLQMNSLKPEDTAVYYCNLVVPYGMIAGDHDYWGQGTKVTVSS | No binding
F08: ALPP/ALPPL2 targeting VHH domain, SEQ ID NO: 35 (protein) VHH: QVQLVESGGGSVQAGGSLRLSCAASGPSLSNYAMGWFRQAPGKEREFVAGISWGGGRTSYTDSVKGRFTISRDNAKNTVYLQMNNLKPEDTGVYYCAGRYGRGRNVEYEYDYWGQGTQVTVSS | No binding
A06: ALPP/ALPPL2 targeting VHH domain, SEQ ID NO: 17; tested C-terminally His-tagged (protein, C-terminal His tag, tested C-terminally His-tagged) VHH: QVHLVESGGGLVQAGGSLRLSCAASGRTFLSMGWFRQAPGKEREFVAAISWTGGSTGYADSVKGRFTISRESDKETMYLQMNSLKPEDTAVYYCAARGDVYYGGDDATRYKYWGQGTQVTVSS | No binding
D04: ALPP/ALPPL2 targeting VHH domain, SEQ ID NO: 26 (protein) VHH: QVQLVESGGGLVQPGGSLRLSCAASESTFSINVMGWYRQAPGKQRELVATITSGDITNYADSVKGRFTISRDNAENTVYLRTNSLKPEDTAVYYCNARGEYHSGNEYDYWGQGTQVTVSS | No binding
C07: ALPP/ALPPL2 targeting VHH domain, SEQ ID NO: 25 (protein) VHH: QVQLVESGGGLVQAGESLRLACAASGTIFSGNAVGWYRQAPEKQREWVSSITDYGDTDYAEAVKGRFTISRDNAKNTVYLQMNSLKPEDTAVYYCYVYQRGESEEYWGQGTQVTVSS | No binding

Continued, values first:

KDapp CHO-ALPL | Molecule
No binding | A05: ALPP/ALPPL2 targeting VHH domain, SEQ ID NO: 16; tested C-terminally His-tagged (protein, C-terminal His tag, tested C-terminally His-tagged) VHH: QVQLVESGGGLVQAGASLTLSCAASGFTFNTRSIVWFRQAPGKEREAVSCISKVAGSTYYGDSVQGRFSSSTDNAKNTVSLQMNSLKPEDTAVYTCAASFAPNCYGWSVAANMEYWGEGTMVTVSS
No binding | E06: ALPP/ALPPL2 targeting VHH domain, SEQ ID NO: 30 (protein) VHH: QVHLVESGGGLVQAGGSLRLSCAASRRSFSEYAMGWFRQAPGKEREFVAAIGWSGVIEYADSVKGRFTISRDNAKDTVYLQMNSLKPEDTAVYYCAAGLGIRVVSQTPAYWGQGTQVTVSS
No binding | E10: ALPP/ALPPL2 targeting VHH domain, SEQ ID NO: 31 (protein) VHH: QVQLVESGGGLVQAGGSLRLSCAVSGRALSDYNIGWFRQAPGKEREFVARKTWDGSSTRYDDSVKGRFTVSIEDAKNTAYLQMSSLKTEDTAVYYCAAGRYSRARGWEYDYWGQGTQVTVSS
No binding | F05: ALPP/ALPPL2 targeting VHH domain, SEQ ID NO: 34 (protein) VHH: QVQLVESGGGLVQAGGSLRLSCAASGRAFGDYNIGWFRQAPGKEREFVARRTWDGSSTRYDDSVKGRFTVSIDNAKNTAYLQMNSLKTEDTAVYYCAAGRYSRVRGWEYDYWGQGTQVTVSS
No binding | B01: ALPP/ALPPL2 targeting VHH domain, SEQ ID NO: 20 (protein) VHH: QVQLVESGGGLVQAGGSLRLSCEVTRSPMPIDTMAWYRQAPGRQRELVAIISRSGSTNYADSVKGRFTISRNDTKSTMYKSTMYLKMNTLELEDTGVYYCNAVGLWNGAEYWGQGTQVTVSS
